The values below come from publication PMC11150655, “IpaA reveals distinct modes of vinculin activation during Shigella invasion and cell-matrix adhesion” (Life Science Alliance, 2024).

Substitutions are numbered along the chain they refer to.

Common to all, as to conditions: both partners purified
Assay [1] concerns the target T1, vinculin D1D2 (vinculin residues 1–484) (human, UniProt P18206 1-484).
T1 construct: vinculin, human, head subdomains D1 and D2, residues 1-484; Valencia-Gallardo et al, 2023) for the plasmid and the purification; also called WT; parental D1D2
T1 sequence (looked up): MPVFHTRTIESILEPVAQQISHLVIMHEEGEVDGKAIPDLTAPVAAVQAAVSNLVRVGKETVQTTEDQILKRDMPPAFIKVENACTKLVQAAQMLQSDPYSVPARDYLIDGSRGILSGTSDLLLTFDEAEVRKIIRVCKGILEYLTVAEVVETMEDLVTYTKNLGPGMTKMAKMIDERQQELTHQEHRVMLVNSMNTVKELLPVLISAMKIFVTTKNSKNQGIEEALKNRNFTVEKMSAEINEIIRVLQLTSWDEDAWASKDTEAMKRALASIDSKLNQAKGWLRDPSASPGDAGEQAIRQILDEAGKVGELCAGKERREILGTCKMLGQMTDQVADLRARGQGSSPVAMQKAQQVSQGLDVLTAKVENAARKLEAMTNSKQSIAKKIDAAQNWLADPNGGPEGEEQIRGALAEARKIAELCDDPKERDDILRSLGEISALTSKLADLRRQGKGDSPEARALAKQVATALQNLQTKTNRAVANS
In words: native gel or EMSA; band A′ cut from the CN-PAGE gel, run in a second dimension on SDS–PAGE, Coomassie staining and scanning densitometry of D1D2 and aVBD (N = 2). For orientation: A gel shift assay detects complexes by their altered migration in electrophoresis.

The target of a further assay is T2, vinculin D1D2 D389R (human, UniProt P18206 1-484, D389R).
T2 construct: vinculin, human, head subdomains D1 and D2, residues 1-484, with D389R
T2 sequence (looked up): T1 sequence (looked up) with D389R
In words: native gel or EMSA; CN-PAGE: D1D2 variant (20 μM) with increasing molar ratio of aVBD, 60 min at 21°C; 7.5% (Fig 2, methods) or 10% (Fig 3, S3) native polyacrylamide gel, Coomassie staining, scanning densitometry normalised to monomeric D1D2 without aVBD; rates from linear fits against the aVBD:D1D2 ratio.

The target of a further assay is T3, vinculin D1D2 K386D (human, UniProt P18206 1-484, K386D).
T3 construct: vinculin, human, head subdomains D1 and D2, residues 1-484, with K386D
T3 sequence (looked up): T1 sequence (looked up) with K386D
The assay is described as above.

For the next assay, the target named is T4, vinculin D1D2 K139E (human, UniProt P18206 1-484, K139E).
T4 construct: vinculin, human, head subdomains D1 and D2, residues 1-484, with K139E
T4 sequence (looked up): T1 sequence (looked up) with K139E
Described as above.

The target in the next assay is T5, vinculin D1D2 E143K (human, UniProt P18206 1-484, E143K).
T5 construct: vinculin, human, head subdomains D1 and D2, residues 1-484, with E143K
T5 sequence (looked up): T1 sequence (looked up) with E143K
Described as above.

Another assay addresses T6, vinculin D1D2 V367D (human, UniProt P18206 1-484, V367D).
T6 construct: vinculin, human, head subdomains D1 and D2, residues 1-484, with V367D
T6 sequence (looked up): T1 sequence (looked up) with V367D
Described as above.

The target in assay [2] is T1, vinculin D1D2 (vinculin residues 1–484). The assay is described as above.
The next assay concerns the target T7, vinculin D1D2 N393D (human, UniProt P18206 1-484, N393D).
T7 construct: vinculin, human, head subdomains D1 and D2, residues 1-484, with N393D
T7 sequence (looked up): T1 sequence (looked up) with N393D
Described as above.

B1: IpaA domain containing all three IpaA VBS1-3 (aVBD) (domain or fragment)
chain: GDTYLTRETIFEASKKVTNSLSNLISLIGTKSGTQERELQEKSKDITKSTTEHRINNKLKVTDANIRNYVTETNADTIDKNHAIYEKAKEVSSALSKVLSKIDDTSAELLTDDISDLKNNNDITAENNNIYKAAKDVTTSLSKVLKNINKD
notes: The plasmid is said to be described previously; also called A483; source: E. coli DH5-α, pGEX-4T2-aVBD, purified (GSTrap, thrombin on the column, SEC on Superdex 200)
With B1, the “stoichiometry N” value in assay [1] was 3.2 D1D2:aVBD molar ratio. Besides, the “rate of monomer disappearance” value with vinculin D1D2 D389R was -1.06 AU^−1; with vinculin D1D2 K386D, -1.29 AU^−1; in the assay with vinculin D1D2 K139E it was -1.42 AU^−1; with vinculin D1D2 E143K, -0.88 AU^−1; with vinculin D1D2 V367D, -0.88 AU^−1; in assay [2] it was -1.06 AU^−1. Further, in the assay with vinculin D1D2 N393D, the “rate of monomer disappearance” value is -1.32 AU^−1.
